Patent US20070264678A1
pEC50: −log10 of the molar value.

Legend:
[1] = target: PTK labeled tracer F-ADE(pY)LIPQQS; assay: binding curves as in Example 2 (FP), antibody at several labeling ratios
[2] = target: PTK labeled tracer F-ADE(pY)LIPQQS; assay: fluorescence polarization, direct binding curve: labeled antibody 10 nM to 9.8 pM against 1 nM tracer

fold variation of affinity for the tracer upon labeling [1] [fold]	pEC50 [2]	Substance
< 2	–	Anti p-Tyr antibody (anti-pY20) labeled with CS124-DTPA-Phe-NCS*Tb
–	9.00	Tb-chelate labeled PY72 (anti-phosphotyrosine) IgG antibody
